Experimental findings from patent US11987606 are described below.

In assay [1] the target is T cell receptor of Ova-specific CD8+ T cells (OT-I), on OT-I cells (mouse). Kind of assay: flow cytometry; His-tagged protein pre-mixed with PE-labeled α-His mAb, incubated with OT-I cells at 37° C. for 5 hours. (A flow cytometer gives signals particle by particle.)
For assay [2] the target is unchanged. In words: cell-based or functional assay.

With “Kb(Ova)/ANXA5 carrying a His tag (peptide-MHC)”, in assay [1], the mean fluorescence shift relative to the unstained control is 100 fold and the percent of OT-I cells pMHC+ (PE fluorescence) turned out to be 98%. The substance also displayed a TCR Vα2 expression downregulated, percent of OT-I cells, compared to the α-His/PE control (flow cytometry) in assay [2] of 90%.
